For the assay, the target named is biotinylated 151AcPhe mutant GFP [GFP: P42212]. Kind of assay: SAv-dependent gel-shift assay, 10% native PAGE.

On to “streptavidin (from UniProt P22629 37-163)”, for which the percent of GFP band retarded is 80%.
